These results are taken from the Immune Epitope Database (IEDB).

Among the targets are HLA-A*02:06; HLA-A*02:17; HLA-A*02:01; HLA-A*02:03; HLA-B*18:01; HLA-B*44:03; HLA-B*44:02; HLA-B*40:01; HLA-B*45:01; HLA-B*40:02; HLA-B*35:01; HLA-B*53:01.
Assay in all cases: IEDB peptide-MHC binding, purified MHC/competitive/radioactivity; filed as Kd, often an IC50 or EC50 that approximates it; ≥ and ≤ were set here for values at or beyond the usual limits of such assays
The target of another test is HLA-B*08:01. The following applies: source organism: Dengue virus 3 Martinique/1243/1999.
A further test concerns the target HLA-A*30:02. The conditions noted are these: source organism: Dengue virus 4 Philippines/H241/1956.
For another test, the target named is HLA-B*51:01. The conditions noted are these: source organism: Dengue virus 1 Brazil/97-11/1997.
The mark [1] stands for this setting: source organism: Dengue virus 3 China/80-2/1980.
[2] abbreviates: source organism: Dengue virus 4 Dominica/814669/1981.
The mark [3] stands for this setting: source organism: SARS coronavirus Tor2.
[4] abbreviates: source organism: Dengue virus 4 Philippines/H241/1956.
Where [5] appears, read: source organism: Mammarenavirus machupoense.
[6] abbreviates: source organism: Mammarenavirus lassaense.
Setting [7] is: source organism: Dengue virus 2 Jamaica/1409/1983.
Where [8] appears, read: source organism: Dengue virus 1 Brazil/97-11/1997.
The mark [9] stands for this setting: source organism: Mammarenavirus guanaritoense.
Where [10] appears, read: source organism: Dengue virus 2 Thailand/NGS-C/1944.
The mark [11] stands for this setting: source organism: Dengue virus 1 Singapore/S275/1990.

For orientation: Kd means the constant that tells how readily two partners part at equilibrium. As for LLLMRTSWAL, the dissociation constant Kd with HLA-A*02:06 (source organism: Dengue virus 3 Martinique/1243/1999) worked out at 0.0133 µM; with HLA-B*08:01 it was 0.00147 µM; with HLA-A*02:17 (setting [1]), 0.0153 µM; in the test with HLA-A*02:01 (setting [1]) it was 0.00552 µM.

Take ALSEGVYRI: the results for the Kd in the test with HLA-A*02:17 (setting [2]), with HLA-A*02:01 (setting [2]) and in the test with HLA-A*02:03 (setting [2]) were 0.172 µM, 0.00288 µM and 0.0173 µM, respectively.

Consider TELEPPCRF, for which the Kd in the test with HLA-B*18:01 (setting [3]) was 0.892 µM; with HLA-B*44:03 (setting [3]) it was 0.0629 µM; with HLA-B*44:02 (setting [3]) it was 0.099 µM; with HLA-B*40:01 (setting [3]), not below 28.5 µM; in the test with HLA-B*45:01 (setting [3]), 12.1 µM; in the test with HLA-B*40:02 (setting [3]) it was 14 µM.

For the sequence YAGPFSQHNY, the Kd in the test with HLA-A*30:02 came to 0.0149 µM; in the test with HLA-B*35:01 (setting [4]) it was 0.113 µM.

In the case of AEWLEMICF, the Kd in the test with HLA-B*18:01 (setting [5]) was determined as 0.164 µM; with HLA-B*44:03 (setting [5]) it was 0.0681 µM; with HLA-B*44:02 (setting [5]) it was 0.0446 µM; in the test with HLA-B*40:01 (setting [5]) it was 2.01 µM; with HLA-B*45:01 (setting [5]), 0.0825 µM; with HLA-B*40:02 (setting [5]), 0.0194 µM.

As to NDNFLMRNV, the Kd with HLA-B*18:01 (setting [5]) is not below 76.7 µM; with HLA-B*44:03 (setting [5]) it was not below 42.5 µM; with HLA-B*44:02 (setting [5]), 9.96 µM; with HLA-B*40:01 (setting [5]), not below 76.1 µM; with HLA-B*45:01 (setting [5]), not below 77.5 µM; in the test with HLA-B*40:02 (setting [5]), 2.12 µM.

For the sequence YDQMKCKSL, the Kd with HLA-B*18:01 (setting [6]) was not below 77.5 µM; in the test with HLA-B*44:03 (setting [6]) it was not below 78.1 µM; with HLA-B*44:02 (setting [6]), not below 76.2 µM; with HLA-B*40:01 (setting [6]), not below 76.1 µM; with HLA-B*45:01 (setting [6]) it was not below 59.4 µM; with HLA-B*40:02 (setting [6]), 3.2 µM.

Take RPASAWTLY: the figures for the Kd with HLA-B*35:01 (setting [7]) and with HLA-B*53:01 (setting [7]) were 0.0836 µM and 0.0875 µM, respectively.

Consider FLDLPLPWA, for which the Kd with HLA-A*02:17 (setting [4]) was found to be 0.108 µM; in the test with HLA-A*02:01 (setting [4]), 0.0104 µM.

In the case of YAQMWQLMYF, the Kd came to 0.964 µM with HLA-B*35:01 (setting [8]), 19.4 µM with HLA-B*51:01 and 0.081 µM with HLA-B*53:01 (setting [8]).

Regarding IDFLIMRNL, the Kd in the test with HLA-B*18:01 (setting [9]) is 15.2 µM; with HLA-B*44:03 (setting [9]), 16.1 µM; with HLA-B*44:02 (setting [9]), 14.5 µM; with HLA-B*40:01 (setting [9]), 15.5 µM; with HLA-B*45:01 (setting [9]), 18 µM; in the test with HLA-B*40:02 (setting [9]), 0.224 µM.

With QEIQLLAAV, the dissociation constant Kd with HLA-B*18:01 (setting [3]) worked out at 0.143 µM; in the test with HLA-B*44:03 (setting [3]) it was 0.0485 µM; in the test with HLA-B*44:02 (setting [3]) it was 0.0933 µM; in the test with HLA-B*40:01 (setting [3]), 0.0265 µM; in the test with HLA-B*45:01 (setting [3]) it was 0.00872 µM; with HLA-B*40:02 (setting [3]), 19.3 µM.

Regarding TLMAMDLGEL, the Kd with HLA-A*02:17 (setting [10]) came out at 0.273 µM; with HLA-A*02:01 (setting [10]), 0.0145 µM; in the test with HLA-A*02:03 (source organism: Dengue virus 2 Peru/IQT2913/1996), 0.00836 µM.

Regarding FENKTTLPV, the Kd in the test with HLA-B*18:01 (setting [3]) was found to be 0.666 µM; with HLA-B*44:03 (setting [3]), 1.87 µM; in the test with HLA-B*44:02 (setting [3]) it was 17.1 µM; with HLA-B*40:01 (setting [3]) it was 0.115 µM; with HLA-B*45:01 (setting [3]), 0.851 µM; with HLA-B*40:02 (setting [3]) it was 0.0253 µM.

On to REPAGLGSM, for which the Kd with HLA-B*18:01 (setting [6]) was 8.15 µM; in the test with HLA-B*44:03 (setting [6]), not below 78.1 µM; in the test with HLA-B*44:02 (setting [6]) it was not below 33.5 µM; in the test with HLA-B*40:01 (setting [6]), 7.91 µM; with HLA-B*45:01 (setting [6]), not below 77.7 µM; in the test with HLA-B*40:02 (setting [6]), 0.0859 µM.

ADSEITETY: the equilibrium dissociation constant (Kd) in the test with HLA-B*18:01 (setting [9]) is 1.39 µM; in the test with HLA-B*44:03 (setting [9]), 2.77 µM; with HLA-B*44:02 (setting [9]), 6.54 µM; with HLA-B*40:01 (setting [9]), not below 37.6 µM; with HLA-B*45:01 (setting [9]), 17 µM; with HLA-B*40:02 (setting [9]), not below 77.2 µM.

Consider FMNEDHWFS, for which the values for the Kd in the test with HLA-A*02:06 (setting [8]), in the test with HLA-A*02:17 (setting [11]) and with HLA-A*02:01 (setting [11]) were 0.27 µM, 0.244 µM and 0.00976 µM, respectively.

Regarding KLFMALVAFL, the Kd came to 0.0518 µM with HLA-A*02:17 (setting [7]), 0.0466 µM with HLA-A*02:01 (setting [7]) and 0.00335 µM in the test with HLA-A*02:03 (setting [7]).
